Reference: paper PMC7744796, “Prolyl isomerization controls activation kinetics of a cyclic nucleotide-gated ion channel” (Nature Communications, 2020)
“And” between values parts separate entries of the source, which are not always exact repeats. Equal values may be shown once.

Columns and labels:
WT SthK = experiment: Stopped-flow Tl+ flux assay, WT SthK in proteo-liposomes; format: biochemical, Spirochaeta thermophila; set-up: key to averaged rate: normalized Tl+ influx rate at 2 ms (unitless, relative)
From the text: (§1) In all cyclic nucleotide-gated channels the connection between the C-linker and the CNBD is formed by a helix-loop-helix motif called the siphon. […] This proline had not been previously implicated in prolyl isomerization in HCN channels or SthK. Due to steric restrictions and the lack of an amide-proton, prolines are only rarely found at the C-termini of α-helices[20],[21]. To test whether this unusual proline (Pro300, Fig. 1a, b) plays a role in channel activation, we employed a fluorescence-based stopped-flow assay to measure activation kinetics of a SthK mutant where the proline was substituted by an alanine.
(§2) All stopped-flow experiments were performed at 25 °C using a SX.20 sequential mixing fluorescence spectrophotometer (Applied Photophysics, Leatherhead, UK) controlled using ProDataSX as described before. In order to prepare liposomes for the Tl^+ flux assays 15 mg of DOPC:POPG:Cardiolipin (5:3:2, w/w/w) in chloroform were dried to a thin film in glass tubes under constant N2 flow and further dried under vacuum overnight. […] The sample was incubated at 21 °C under constant agitation for 3 h, the supernatant was transferred to a new glass tube and stored at 13 °C overnight. […] The liposome solution was diluted 5-times in sample buffer right before the experiments to ensure a good signal-to-noise ratio.
(§3) For the time course of activation in the presence of PPIases 2 µM of enzyme were added to the liposome solution and incubated for at least 10 min before the experiment yielding 1 µM of enzyme in the aging loop (after the first mixing event).
(§4) During one experiment, at least seven technical repeats were performed for each data point, every repeat was visually inspected for its quality, mixing artifacts were sorted out and the remaining repeats (typically 6–7 technical repeats) were analyzed separately in Matlab using a stretched exponential function (Eq. (2)) and the rate of Tl^+ influx into liposomes was calculated at 2 ms according to Eq. (3). 5000 data points were recorded over 1 s, however, to obtain the initial rate of Tl^+ influx only the first 100 ms were analyzed. The use of a stretched exponential function is necessary since the sizes of the liposomes vary and different amounts of channel proteins can be incorporated in different liposomes.2 Ft=F∞+F0−F∞⋅e^−t/τ^β 3 kt=β/τ⋅0.002s/τ^β−1 with Ft, F∞, F0 being the fluorescence at time t, the final fluorescence and the initial fluorescence, respectively. t is the time (in s), τ the time constant (in s) and β the stretched exponential factor. kt is the calculated rate (in s^−1) of Tl^+ influx at 2 ms.
(§5) The calculated rates kt were then averaged and the standard deviation (S.D.) was determined. Each experiment was independently repeated at least three times, the obtained rate constants were normalized, averaged and the S.D. was determined.
(§6) All further analysis was performed in GraFit. For the time course of channel activation, the rates were plotted as a function of the delay time in the first mixing step and fitted according to a double exponential.

SthK P300A = experiment: Stopped-flow Tl+ flux assay, SthK P300A in proteo-liposomes; format: biochemical, Spirochaeta thermophila; conditions: SthK P300A + SlyD; for averaged rate: mean of normalized rates; for normalized rate: single replicates
From the text: as §1, §2, §3, §4, §5, §6

Abz-Ala-Leu-Pro-Phe-pNA = experiment: Peptide-based isomerization assay, PPIase activity, Leu substrate; format: biochemical
Description: (§7) To determine the activity of PPIases, peptides with either Leu or Glu preceding the Pro were used. Buffer and the desired concentration of PPIase were mixed in a QS quartz cuvette (Hellma Analytics) and incubated for 2 min under constant stirring. Peptide was added and the fluorescence increase was monitored.

Abz-Ala-Glu-Pro-Phe-pNA = experiment: Peptide-based isomerization assay, PPIase activity, Glu substrate; format: biochemical
Description: as §7

[1] = 1 µM PPIase, 100 µM cAMP, delay time 0.012 s
[2] = 1 µM PPIase, 100 µM cAMP, delay time 0.050 s
[3] = 1 µM PPIase, 100 µM cAMP, delay time 0.100 s
[4] = 1 µM PPIase, 100 µM cAMP, delay time 0.500 s
[5] = 1 µM PPIase, 100 µM cAMP, delay time 1.000 s
[6] = 1 µM PPIase, 100 µM cAMP, delay time 2.500 s
[7] = 1 µM PPIase, 100 µM cAMP, delay time 5.000 s
[8] = 1 µM PPIase, 100 µM cAMP, delay time 10.000 s
[9] = [PPIase] 10 pM, 12 ms with 100 µM cAMP
[10] = [PPIase] 100 pM, 12 ms with 100 µM cAMP
[11] = [PPIase] 1e-8 M, 12 ms with 100 µM cAMP
[12] = [PPIase] 1e-7 M, 12 ms with 100 µM cAMP
[13] = [PPIase] 1e-6 M, 12 ms with 100 µM cAMP
[14] = [PPIase] 1e-5 M, 12 ms with 100 µM cAMP

B1: SlyD: bacterial FKBP-type isomerase (UniProt P0A9K9, residues 1–165) (protein, UniProt P0A9K9 1-165, looked up, fragment)
chain: MKVAKDLVVSLAYQVRTEDGVLVDESPVSAPLDYLHGHGSLISGLETALEGHEVGDKFDVAVGANDAYGQYDENLVQRVPKDVFMGVDELQVGMRFLAETDQGPVPVEITAVEDDHVVVDGNHMLAGQNLKFNVEVVAIREATEEELAHGHVHGAHDHHHDHDHD
In the case of B1, the averaged rate (WT SthK; [1]) is reported as 1.130, the normalized rate (WT SthK; [1]) is reported as 0.993 and 1.357 and 1.239 and 1.025 and 1.202 and 0.960 and the averaged rate (WT SthK; [2]) is reported as 1.035. The normalized rate (WT SthK; [2]) was 1.008 and 0.974 and 1.215 and 1.144 and 1.115 and 0.926 and 0.860, the averaged rate (WT SthK; [3]) was 0.965 and the normalized rate (WT SthK; [3]) was 0.986 and 0.930 and 0.972 and 1.038 and 1.181 and 0.964 and 0.683. The normalized rate (WT SthK; 1 µM PPIase, 100 µM cAMP, delay time 0.250 s) was 0.815 and 0.934 and 1.134 and 1.296 and 1.074 and 0.872, the averaged rate (WT SthK; [4]) was 0.978 and the normalized rate (WT SthK; [4]) was 0.911 and 0.879 and 0.973 and 1.305 and 0.757 and 1.021 and 1.000. For the same molecule, the averaged rate (WT SthK; [5]) was 0.917, the normalized rate (WT SthK; [5]) was 0.846 and 1.000 and 0.945 and 0.918 and 0.791 and 0.664 and the averaged rate (WT SthK; [6]) was 0.942. The normalized rate (WT SthK; [6]) was 0.974 and 0.975 and 0.900 and 0.886 and 0.933 and 1.068, the averaged rate (WT SthK; [7]) was 1.014 and the normalized rate (WT SthK; [7]) was 0.948 and 0.912 and 0.942 and 1.000 and 1.421 and 0.879. The averaged rate (WT SthK; [8]) was 0.922, the normalized rate (WT SthK; [8]) was 1.000 and 0.963 and 0.916 and 0.966 and 0.900 and 0.827 and 0.883 and the “effect on SthK activation (slow activation phase)” value (WT SthK; 1 µM protein, 100 µM cAMP) was “abolished”. The EC50 (WT SthK; PPIase concentration dependence of normalized Tl+ flux rate, 12 ms incubation with 100 µM cAMP) was ~30 nM, the averaged rate (WT SthK; [9]) was 0.622 and the normalized rate (WT SthK; [9]) was 0.592 and 0.562 and 0.636 and 0.697. For the same molecule, the averaged rate (WT SthK; [10]) was 0.685, the normalized rate (WT SthK; [10]) was 0.710 and 0.760 and 0.585 and the normalized rate (WT SthK; [PPIase] 1e-9 M, 12 ms with 100 µM cAMP) was 0.755 and 0.566 and 0.775 and 0.750. For the same molecule, the averaged rate (WT SthK; [11]) was 0.814, the normalized rate (WT SthK; [11]) was 0.965 and 0.565 and 0.822 and 0.905 and the averaged rate (WT SthK; [12]) was 0.961. The normalized rate (WT SthK; [12]) was 1.083 and 0.844 and 0.962 and 0.956, the averaged rate (WT SthK; [13]) was 0.999 and the normalized rate (WT SthK; [13]) was 1.000 and 0.992 and 1.006. It also gave an averaged rate (WT SthK; [14]) of 1.000, a normalized rate (WT SthK; [14]) of 1.000 and an averaged rate (SthK P300A; delay time 0.010 s) of 1.007. The normalized rate (SthK P300A; delay time 0.010 s) was 1.011 and 0.947, the averaged rate (SthK P300A; delay time 0.025 s) was 0.973 and the normalized rate (SthK P300A; delay time 0.025 s) was 0.800. For the same molecule, the averaged rate (SthK P300A; delay time 0.050 s) was 0.981, the normalized rate (SthK P300A; delay time 0.050 s) was 0.892 and 1.105 and the averaged rate (SthK P300A; delay time 0.100 s) was 0.894. For the same molecule, the normalized rate (SthK P300A; delay time 0.100 s) was 1.000 and 0.795 and 0.887, the averaged rate (SthK P300A; delay time 0.250 s) was 1.060 and the normalized rate (SthK P300A; delay time 0.250 s) was 1.026 and 1.272 and 0.881. The averaged rate (SthK P300A; delay time 0.500 s) was 1.153, the normalized rate (SthK P300A; delay time 0.500 s) was 1.146 and 1.160 and the averaged rate (SthK P300A; delay time 1.000 s) was 1.068. For the same molecule, the normalized rate (SthK P300A; delay time 1.000 s) was 1.172, the averaged rate (SthK P300A; delay time 2.500 s) was 1.001 and the normalized rate (SthK P300A; delay time 2.500 s) was 1.067 and 1.000. The averaged rate (SthK P300A; delay time 5.000 s) was 0.966, the normalized rate (SthK P300A; delay time 5.000 s) was 1.000 and 0.922 and the averaged rate (SthK P300A; delay time 10.000 s) was 0.867. The normalized rate (SthK P300A; delay time 10.000 s) was 0.930 and 0.866 and 0.804, the apparent rate (Abz-Ala-Leu-Pro-Phe-pNA; KCl, LPF substrate, 2 nM enzyme) was 0.041 s⁻¹ and 0.044 s⁻¹ and 0.045 s⁻¹ and the apparent rate (Abz-Ala-Leu-Pro-Phe-pNA; KCl, LPF substrate, 5 nM enzyme) was 0.051 s⁻¹ and 0.061 s⁻¹ and 0.048 s⁻¹. The apparent rate (Abz-Ala-Leu-Pro-Phe-pNA; KCl, LPF substrate, 10 nM enzyme) was 0.068 s⁻¹ and 0.054 s⁻¹ and 0.069 s⁻¹, the apparent rate (Abz-Ala-Leu-Pro-Phe-pNA; KCl, LPF substrate, 15 nM enzyme) was 0.053 s⁻¹ and 0.072 s⁻¹ and 0.063 s⁻¹ and the apparent rate (Abz-Ala-Leu-Pro-Phe-pNA; KNO3, LPF substrate, 2 nM enzyme) was 0.049 s⁻¹ and 0.043 s⁻¹ and 0.048 s⁻¹. The apparent rate (Abz-Ala-Leu-Pro-Phe-pNA; KNO3, LPF substrate, 5 nM enzyme) was 0.062 s⁻¹ and 0.056 s⁻¹ and 0.074 s⁻¹, the apparent rate (Abz-Ala-Leu-Pro-Phe-pNA; KNO3, LPF substrate, 10 nM enzyme) was 0.072 s⁻¹ and 0.045 s⁻¹ and the apparent rate (Abz-Ala-Leu-Pro-Phe-pNA; KNO3, LPF substrate, 15 nM enzyme) was 0.062 s⁻¹ and 0.069 s⁻¹ and 0.077 s⁻¹. For the same molecule, the apparent rate (Abz-Ala-Glu-Pro-Phe-pNA; KCl, EPF substrate, 2 nM enzyme) was 0.026 s⁻¹ and 0.024 s⁻¹, the apparent rate (Abz-Ala-Glu-Pro-Phe-pNA; KCl, EPF substrate, 5 nM enzyme) was 0.025 s⁻¹ and 0.026 s⁻¹ and the apparent rate (Abz-Ala-Glu-Pro-Phe-pNA; KCl, EPF substrate, 10 nM enzyme) was 0.024 s⁻¹ and 0.025 s⁻¹. For the same molecule, the apparent rate (Abz-Ala-Glu-Pro-Phe-pNA; KCl, EPF substrate, 15 nM enzyme) was 0.025 s⁻¹ and 0.024 s⁻¹, the apparent rate (Abz-Ala-Glu-Pro-Phe-pNA; KNO3, EPF substrate, 2 nM enzyme) was 0.023 s⁻¹ and 0.027 s⁻¹ and the apparent rate (Abz-Ala-Glu-Pro-Phe-pNA; KNO3, EPF substrate, 5 nM enzyme) was 0.024 s⁻¹ and 0.029 s⁻¹ and 0.027 s⁻¹. For the same molecule, the apparent rate (Abz-Ala-Glu-Pro-Phe-pNA; KNO3, EPF substrate, 10 nM enzyme) was 0.028 s⁻¹ and 0.024 s⁻¹ and 0.026 s⁻¹ and the apparent rate (Abz-Ala-Glu-Pro-Phe-pNA; KNO3, EPF substrate, 15 nM enzyme) was 0.024 s⁻¹ and 0.027 s⁻¹.
